According to article PMC10584365 (Nature, 2023):
Values joined by “and” are separate entries in the source; they are usually repeats but may differ in a detail not shown here. Identical values can stand only once.

B1: full-length human TRPV3 channel (expressed in P. pastoris) (natural protein, UniProt Q8NET8 1-790, looked up)
chain: MKAHPKEMVPLMGKRVAAPSGNPAILPEKRPAEITPTKKSAHFFLEIEGFEPNPTVAKTSPPVFSKPMDSNIRQCISGNCDDMDSPQSPQDDVTETPSNPNSPSAQLAKEEQRRKKRRLKKRIFAAVSEGCVEELVELLVELQELCRRRHDEDVPDFLMHKLTASDTGKTCLMKALLNINPNTKEIVRILLAFAEENDILGRFINAEYTEEAYEGQTALNIAIERRQGDIAALLIAAGADVNAHAKGAFFNPKYQHEGFYFGETPLALAACTNQPEIVQLLMEHEQTDITSRDSRGNNILHALVTVAEDFKTQNDFVKRMYDMILLRSGNWELETTRNNDGLTPLQLAAKMGKAEILKYILSREIKEKRLRSLSRKFTDWAYGPVSSSLYDLTNVDTTTDNSVLEITVYNTNIDNRHEMLTLEPLHTLLHMKWKKFAKHMFFLSFCFYFFYNITLTLVSYYRPREEEAIPHPLALTHKMGWLQLLGRMFVLIWAMCISVKEGIAIFLLRPSDLQSILSDAWFHFVFFIQAVLVILSVFLYLFAYKEYLACLVLAMALGWANMLYYTRGFQSMGMYSVMIQKVILHDVLKFLFVYIVFLLGFGVALASLIEKCPKDNKDCSSYGSFSDAVLELFKLTIGLGDLNIQQNSKYPILFLFLLITYVILTFVLLLNMLIALMGETVENVSKESERIWRLQRARTILEFEKMLPEWLRSRFRMGELCKVAEDDFRLCLRINEVKWTEWKTHVSFLNEDPGPVRRTDFNKIQDSSRNNSKTTLNAFEEVEEFPETSV
B2: full-length human TRPV3 (expressed in HEK293S GnTI- cells) (natural protein, UniProt Q8NET8 1-790, looked up)
chain: B1 chain

Target: the molecule itself
Test: high-speed atomic force microscopy

| Protein | stoichiometry N |
| --- | --- |
| B1 | 4 and 5 |
| B2 | 3 and 2 |
